{"source": "the supplement of paper PMC10065799", "about": "“High-throughput profiling of sequence recognition by tyrosine kinases and SH2 domains using bacterial peptide display” (eLife, 2023);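 on SH2 binding enrichment of the phosphorylated peptide, bacterial display: peptide library displayed on the E. coli surface as eCPX fusions, selected cells deep-sequenced, score is each peptide's frequency after selection divided by its frequency in the input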;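 on phosphorylation enrichment, bacterial display: 11-residue human phosphosite peptides and single-mutation variants displayed on the E. coli surface, counted by deep sequencing, each peptide's frequency after selection divided by its frequency in the unselected input library; frequency after pTyr selection over input frequency; kinase dosed for 20-30% of maximal phosphorylation in three min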"}
{"test_system": "c-Src", "assay": "phosphorylation enrichment, bacterial display (enrichment ratio); higher = better substrate or ligand; peptides without Tyr show the background"}
{"sequence": "ILTFKYLQKPM [KIT_Y547_YF]", "phosphorylation enrichment": 0.605}
{"sequence": "MSSLFYANTLF [HOXB7_Y6_YF]", "phosphorylation enrichment": 0.883}
{"sequence": "KKRSSYGNSSD [SELENOK_Y52_R50S]", "phosphorylation enrichment": 0.515}
{"sequence": "KLIETYSSKNF [PLP1_Y50_F51S_YF]", "phosphorylation enrichment": 0.451}
{"sequence": "SHSMRYFFTAV [HLA-C_Y31_D33F]", "phosphorylation enrichment": 0.568}
{"sequence": "ELELLYLDRNS [NYX_Y284]", "phosphorylation enrichment": 0.515}
{"sequence": "IIGNGYYFRVF [MYBPC3_Y1135]", "phosphorylation enrichment": 0.335}
{"sequence": "PQGVGYPPQPQ [EP300_Y2219_Q2223P]", "phosphorylation enrichment": 0.802}
{"sequence": "LTDLRYKVSGP", "phosphorylation enrichment": 0.255}
{"sequence": "KTDVHYRSLGG [DYSF_Y1858]", "phosphorylation enrichment": 0.359}
{"sequence": "GGQVFYNSEFG [FLT4_Y1333_YF]", "phosphorylation enrichment": 0.838}
{"sequence": "VDFQPYRKHKF [TEX37_Y28_YF]", "phosphorylation enrichment": 0.377}
{"sequence": "SLIDGYYRLTA [JAK2_Y372]", "phosphorylation enrichment": 0.451}
{"sequence": "DVVKDYAFVHM [RBM14_Y114]", "phosphorylation enrichment": 0.466}
{"sequence": "NDEDIYKGLPD [VAV3_Y141]", "phosphorylation enrichment": 0.837}
{"sequence": "TLQNMYGCDVG [HLA-B_Y123_S121N]", "phosphorylation enrichment": 0.601}
{"sequence": "FENGEYIIRQG [PRKG1_Y247_YF]", "phosphorylation enrichment": 0.591}
{"sequence": "QAIDEYEKWLE [MAP9_Y603_N601D]", "phosphorylation enrichment": 0.479}
{"sequence": "ERWLKYFPNEQ [HS3ST5_Y244_I247N]", "phosphorylation enrichment": 0.419}
{"sequence": "MDNQEYKDAYT [BRDT_Y331_K336T]", "phosphorylation enrichment": 0.546}
{"sequence": "HRERPYGGGGG [FUS_Y526_R521H]", "phosphorylation enrichment": 0.523}
{"sequence": "AVAFLYYKSIG [ADGRL4_Y301_V300L]", "phosphorylation enrichment": 0.459}
{"sequence": "SWDKRYCEAGC [ITGA2B_Y197_F202C]", "phosphorylation enrichment": 0.357}
{"sequence": "RLAKRYLIWEC [SCN5A_Y694_Q692K]", "phosphorylation enrichment": 0.486}
{"sequence": "YRIDHYLGKEM [G6PD_Y202]", "phosphorylation enrichment": 0.485}
{"sequence": "SVAVPYEPPEV [TP53_Y220_V217A]", "phosphorylation enrichment": 0.551}
{"sequence": "ALAHEYHGGGG [HBB_Y146_K145E]", "phosphorylation enrichment": 0.41}
{"sequence": "SSVPDYLAAVD [GLB1_Y154_D151V]", "phosphorylation enrichment": 0.381}
{"sequence": "PFFTSYPPSPD [GDAP2_Y491_YF]", "phosphorylation enrichment": 0.588}
{"target": "Grb2 SH2 (UniProt P62993)", "sequence (P62993 whole entry, looked up)": "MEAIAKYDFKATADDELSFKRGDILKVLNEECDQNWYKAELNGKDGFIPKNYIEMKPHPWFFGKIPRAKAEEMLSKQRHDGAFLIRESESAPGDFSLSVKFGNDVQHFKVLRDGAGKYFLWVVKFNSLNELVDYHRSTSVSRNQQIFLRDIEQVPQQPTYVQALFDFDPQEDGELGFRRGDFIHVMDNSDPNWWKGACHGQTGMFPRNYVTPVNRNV", "assay": "SH2 binding enrichment of the phosphorylated peptide, bacterial display (enrichment ratio); higher = better substrate or ligand; peptides without Tyr show the background"}
{"sequence": "ILTFKYLQKPM [KIT_Y547_YF]", "SH2 binding enrichment": 0.659}
{"sequence": "MSSLFYANTLF [HOXB7_Y6_YF]", "SH2 binding enrichment": 0.905}
{"sequence": "KKRSSYGNSSD [SELENOK_Y52_R50S]", "SH2 binding enrichment": 0.686}
{"sequence": "KLIETYSSKNF [PLP1_Y50_F51S_YF]", "SH2 binding enrichment": 0.713}
{"sequence": "SHSMRYFFTAV [HLA-C_Y31_D33F]", "SH2 binding enrichment": 1.39}
{"sequence": "ELELLYLDRNS [NYX_Y284]", "SH2 binding enrichment": 1.03}
{"sequence": "IIGNGYYFRVF [MYBPC3_Y1135]", "SH2 binding enrichment": 0.852}
{"sequence": "PQGVGYPPQPQ [EP300_Y2219_Q2223P]", "SH2 binding enrichment": 0.998}
{"sequence": "LTDLRYKVSGP", "SH2 binding enrichment": 1.04}
{"sequence": "KTDVHYRSLGG [DYSF_Y1858]", "SH2 binding enrichment": 0.74}
{"sequence": "GGQVFYNSEFG [FLT4_Y1333_YF]", "SH2 binding enrichment": 0.623}
{"sequence": "VDFQPYRKHKF [TEX37_Y28_YF]", "SH2 binding enrichment": 0.991}
{"sequence": "SLIDGYYRLTA [JAK2_Y372]", "SH2 binding enrichment": 0.986}
{"sequence": "DVVKDYAFVHM [RBM14_Y114]", "SH2 binding enrichment": 0.823}
{"sequence": "NDEDIYKGLPD [VAV3_Y141]", "SH2 binding enrichment": 0.85}
{"sequence": "TLQNMYGCDVG [HLA-B_Y123_S121N]", "SH2 binding enrichment": 1.01}
{"sequence": "FENGEYIIRQG [PRKG1_Y247_YF]", "SH2 binding enrichment": 0.908}
{"sequence": "QAIDEYEKWLE [MAP9_Y603_N601D]", "SH2 binding enrichment": 0.757}
{"sequence": "ERWLKYFPNEQ [HS3ST5_Y244_I247N]", "SH2 binding enrichment": 0.95}
{"sequence": "MDNQEYKDAYT [BRDT_Y331_K336T]", "SH2 binding enrichment": 0.702}
{"sequence": "HRERPYGGGGG [FUS_Y526_R521H]", "SH2 binding enrichment": 1.17}
{"sequence": "AVAFLYYKSIG [ADGRL4_Y301_V300L]", "SH2 binding enrichment": 0.722}
{"sequence": "SWDKRYCEAGC [ITGA2B_Y197_F202C]", "SH2 binding enrichment": 0.957}
{"sequence": "RLAKRYLIWEC [SCN5A_Y694_Q692K]", "SH2 binding enrichment": 0.911}
{"sequence": "YRIDHYLGKEM [G6PD_Y202]", "SH2 binding enrichment": 0.678}
{"sequence": "SVAVPYEPPEV [TP53_Y220_V217A]", "SH2 binding enrichment": 1.05}
{"sequence": "ALAHEYHGGGG [HBB_Y146_K145E]", "SH2 binding enrichment": 0.776}
{"sequence": "SSVPDYLAAVD [GLB1_Y154_D151V]", "SH2 binding enrichment": 0.774}
{"sequence": "PFFTSYPPSPD [GDAP2_Y491_YF]", "SH2 binding enrichment": 0.739}
{"target": "SHP2-C SH2", "assay": "SH2 binding enrichment of the phosphorylated peptide, bacterial display (enrichment ratio); higher = better substrate or ligand; peptides without Tyr show the background"}
{"sequence": "ILTFKYLQKPM [KIT_Y547_YF]", "SH2 binding enrichment": 0.474}
{"sequence": "MSSLFYANTLF [HOXB7_Y6_YF]", "SH2 binding enrichment": 0.861}
{"sequence": "KKRSSYGNSSD [SELENOK_Y52_R50S]", "SH2 binding enrichment": 0.609}
{"sequence": "KLIETYSSKNF [PLP1_Y50_F51S_YF]", "SH2 binding enrichment": 0.472}
{"sequence": "SHSMRYFFTAV [HLA-C_Y31_D33F]", "SH2 binding enrichment": 1.33}
{"sequence": "ELELLYLDRNS [NYX_Y284]", "SH2 binding enrichment": 0.7}
{"sequence": "IIGNGYYFRVF [MYBPC3_Y1135]", "SH2 binding enrichment": 0.651}
{"sequence": "PQGVGYPPQPQ [EP300_Y2219_Q2223P]", "SH2 binding enrichment": 0.716}
{"sequence": "LTDLRYKVSGP", "SH2 binding enrichment": 0.82}
{"sequence": "KTDVHYRSLGG [DYSF_Y1858]", "SH2 binding enrichment": 0.649}
{"sequence": "GGQVFYNSEFG [FLT4_Y1333_YF]", "SH2 binding enrichment": 0.735}
{"sequence": "VDFQPYRKHKF [TEX37_Y28_YF]", "SH2 binding enrichment": 0.87}
{"sequence": "SLIDGYYRLTA [JAK2_Y372]", "SH2 binding enrichment": 6.44}
{"sequence": "DVVKDYAFVHM [RBM14_Y114]", "SH2 binding enrichment": 0.608}
{"sequence": "NDEDIYKGLPD [VAV3_Y141]", "SH2 binding enrichment": 0.902}
{"sequence": "TLQNMYGCDVG [HLA-B_Y123_S121N]", "SH2 binding enrichment": 0.765}
{"sequence": "FENGEYIIRQG [PRKG1_Y247_YF]", "SH2 binding enrichment": 0.462}
{"sequence": "QAIDEYEKWLE [MAP9_Y603_N601D]", "SH2 binding enrichment": 0.805}
{"sequence": "ERWLKYFPNEQ [HS3ST5_Y244_I247N]", "SH2 binding enrichment": 1.24}
{"sequence": "MDNQEYKDAYT [BRDT_Y331_K336T]", "SH2 binding enrichment": 0.655}
{"sequence": "HRERPYGGGGG [FUS_Y526_R521H]", "SH2 binding enrichment": 1.05}
{"sequence": "AVAFLYYKSIG [ADGRL4_Y301_V300L]", "SH2 binding enrichment": 0.559}
{"sequence": "SWDKRYCEAGC [ITGA2B_Y197_F202C]", "SH2 binding enrichment": 1.23}
{"sequence": "RLAKRYLIWEC [SCN5A_Y694_Q692K]", "SH2 binding enrichment": 0.654}
{"sequence": "YRIDHYLGKEM [G6PD_Y202]", "SH2 binding enrichment": 0.665}
{"sequence": "SVAVPYEPPEV [TP53_Y220_V217A]", "SH2 binding enrichment": 0.719}
{"sequence": "ALAHEYHGGGG [HBB_Y146_K145E]", "SH2 binding enrichment": 0.627}
{"sequence": "SSVPDYLAAVD [GLB1_Y154_D151V]", "SH2 binding enrichment": 0.816}
{"sequence": "PFFTSYPPSPD [GDAP2_Y491_YF]", "SH2 binding enrichment": 0.568}
{"target": "c-Src SH2", "assay": "SH2 binding enrichment of the phosphorylated peptide, bacterial display (enrichment ratio); higher = better substrate or ligand; peptides without Tyr show the background"}
{"sequence": "ILTFKYLQKPM [KIT_Y547_YF]", "SH2 binding enrichment": 0.449}
{"sequence": "MSSLFYANTLF [HOXB7_Y6_YF]", "SH2 binding enrichment": 0.509}
{"sequence": "KKRSSYGNSSD [SELENOK_Y52_R50S]", "SH2 binding enrichment": 0.441}
{"sequence": "KLIETYSSKNF [PLP1_Y50_F51S_YF]", "SH2 binding enrichment": 0.422}
{"sequence": "SHSMRYFFTAV [HLA-C_Y31_D33F]", "SH2 binding enrichment": 1.25}
{"sequence": "ELELLYLDRNS [NYX_Y284]", "SH2 binding enrichment": 0.59}
{"sequence": "IIGNGYYFRVF [MYBPC3_Y1135]", "SH2 binding enrichment": 0.472}
{"sequence": "PQGVGYPPQPQ [EP300_Y2219_Q2223P]", "SH2 binding enrichment": 0.666}
{"sequence": "LTDLRYKVSGP", "SH2 binding enrichment": 0.407}
{"sequence": "KTDVHYRSLGG [DYSF_Y1858]", "SH2 binding enrichment": 0.472}
{"sequence": "GGQVFYNSEFG [FLT4_Y1333_YF]", "SH2 binding enrichment": 0.45}
{"sequence": "VDFQPYRKHKF [TEX37_Y28_YF]", "SH2 binding enrichment": 0.844}
{"sequence": "SLIDGYYRLTA [JAK2_Y372]", "SH2 binding enrichment": 2.57}
{"sequence": "DVVKDYAFVHM [RBM14_Y114]", "SH2 binding enrichment": 0.472}
{"sequence": "NDEDIYKGLPD [VAV3_Y141]", "SH2 binding enrichment": 0.57}
{"sequence": "TLQNMYGCDVG [HLA-B_Y123_S121N]", "SH2 binding enrichment": 0.643}
{"sequence": "FENGEYIIRQG [PRKG1_Y247_YF]", "SH2 binding enrichment": 0.382}
{"sequence": "QAIDEYEKWLE [MAP9_Y603_N601D]", "SH2 binding enrichment": 0.432}
{"sequence": "ERWLKYFPNEQ [HS3ST5_Y244_I247N]", "SH2 binding enrichment": 0.707}
{"sequence": "MDNQEYKDAYT [BRDT_Y331_K336T]", "SH2 binding enrichment": 0.574}
{"sequence": "HRERPYGGGGG [FUS_Y526_R521H]", "SH2 binding enrichment": 1.18}
{"sequence": "AVAFLYYKSIG [ADGRL4_Y301_V300L]", "SH2 binding enrichment": 0.461}
{"sequence": "SWDKRYCEAGC [ITGA2B_Y197_F202C]", "SH2 binding enrichment": 0.651}
{"sequence": "RLAKRYLIWEC [SCN5A_Y694_Q692K]", "SH2 binding enrichment": 0.704}
{"sequence": "YRIDHYLGKEM [G6PD_Y202]", "SH2 binding enrichment": 0.589}
{"sequence": "SVAVPYEPPEV [TP53_Y220_V217A]", "SH2 binding enrichment": 0.728}
{"sequence": "ALAHEYHGGGG [HBB_Y146_K145E]", "SH2 binding enrichment": 0.696}
{"sequence": "SSVPDYLAAVD [GLB1_Y154_D151V]", "SH2 binding enrichment": 0.523}
{"sequence": "PFFTSYPPSPD [GDAP2_Y491_YF]", "SH2 binding enrichment": 0.471}
